Measurements as given in patent US20240043551A1 (ADLAI NORTYE BIOPHARMA, published 2024).

T1: Human TNFR1 (Acro Biosystem, TN1-H5222) (human, UniProt P19438 30-211)
T1 construct: Bought protein; also called TNF receptor type 1; CD120a
T1 sequence (looked up): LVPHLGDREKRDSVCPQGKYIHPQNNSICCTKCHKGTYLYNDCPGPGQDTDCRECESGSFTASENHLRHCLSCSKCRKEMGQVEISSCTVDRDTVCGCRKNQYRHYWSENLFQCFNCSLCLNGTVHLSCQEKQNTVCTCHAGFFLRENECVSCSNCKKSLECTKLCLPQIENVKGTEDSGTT

T2: mouse TNFR2 (R&D systems, 426-R2-050/CF) (mouse, UniProt P25119 23-258)
T2 construct: Bought protein
T2 sequence (looked up): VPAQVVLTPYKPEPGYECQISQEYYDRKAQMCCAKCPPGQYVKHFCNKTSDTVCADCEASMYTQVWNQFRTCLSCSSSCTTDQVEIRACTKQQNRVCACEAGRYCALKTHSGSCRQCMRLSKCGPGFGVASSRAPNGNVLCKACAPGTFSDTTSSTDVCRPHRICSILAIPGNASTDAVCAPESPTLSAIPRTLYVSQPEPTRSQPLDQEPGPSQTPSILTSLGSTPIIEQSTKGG

T3: rat TNFR2 (R&D systems, 8348-R2-050) (rat, UniProt Q80WY6 23-258)
T3 construct: Bought protein
T3 sequence (looked up): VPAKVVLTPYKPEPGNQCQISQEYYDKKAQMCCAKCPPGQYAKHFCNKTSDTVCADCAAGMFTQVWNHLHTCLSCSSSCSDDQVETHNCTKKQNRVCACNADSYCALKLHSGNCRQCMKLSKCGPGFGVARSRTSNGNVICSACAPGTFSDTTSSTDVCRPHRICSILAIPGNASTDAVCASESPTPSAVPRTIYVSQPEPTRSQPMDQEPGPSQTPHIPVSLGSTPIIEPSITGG

T4: His tagged human TNFR2 ECD (Acro Biosystem, TN2-H5227) (human, UniProt P20333 23-257)
T4 construct: extracellular domain; Bought protein; also called TNFR2-His; hTNFR2-His; not shown: His tag
T4 sequence (looked up): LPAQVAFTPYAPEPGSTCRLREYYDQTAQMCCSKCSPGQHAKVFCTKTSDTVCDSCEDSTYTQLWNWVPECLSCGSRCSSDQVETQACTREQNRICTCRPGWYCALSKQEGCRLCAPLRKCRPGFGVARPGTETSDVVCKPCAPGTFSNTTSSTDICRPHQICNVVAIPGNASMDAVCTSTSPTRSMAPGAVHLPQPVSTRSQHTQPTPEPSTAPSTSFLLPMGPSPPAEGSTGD

T5: Full length human TNFR2 on Jurkat E6-1 cells (Clone NO.3) (human, UniProt P20333 23-461)
T5 construct: whole, on cells; also called human TNFR2+ Jurkat cells; hTNFR2 Jurkat
T5 sequence (looked up): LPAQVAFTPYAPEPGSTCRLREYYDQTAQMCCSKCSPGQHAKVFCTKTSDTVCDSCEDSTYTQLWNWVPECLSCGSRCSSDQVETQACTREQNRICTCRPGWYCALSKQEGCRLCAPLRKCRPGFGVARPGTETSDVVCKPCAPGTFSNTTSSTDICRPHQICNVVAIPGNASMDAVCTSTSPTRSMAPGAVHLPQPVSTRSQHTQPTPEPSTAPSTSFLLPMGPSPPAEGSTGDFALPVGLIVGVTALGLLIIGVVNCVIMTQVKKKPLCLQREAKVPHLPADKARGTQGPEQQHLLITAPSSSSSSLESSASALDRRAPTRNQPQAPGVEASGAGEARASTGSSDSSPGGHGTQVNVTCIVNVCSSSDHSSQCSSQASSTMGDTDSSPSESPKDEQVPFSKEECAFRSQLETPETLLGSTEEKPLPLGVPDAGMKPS


Tests used:
[1] = target: T1, Human TNFR1 (Acro Biosystem, TN1-H5222); test: ELISA, receptor coated at 1 µg/mL
Method: (§1) Human TNFR2 (Acro Biosystem, TN2-H5227), Human TNFR1 (Acro Biosystem, TN1-H5222), Cynomolgus TNFR2 (Sino Biological, 90102-CO8H) or mouse TNFR2 (R&D systems, 426-R2-050/CF) was coated on high binding polystyrene flat bottom micro-titer plates (Thermo Scientific, 3455) in PBS (PH=7.4, Gibco,10010-031) at 1 μg/mL and 100 μL per well. Plates were incubated at 4° C. overnight.
(§2) Plates were warmed up to room temperature the next day and washed with 200 μL PBS containing 0.1% Tween 20 (Life technologies, 003005) per well for 3 times. Plates were blocked with 200 μL PBS buffer containing 1% BSA (Fisher Scientific, BP1600-100) per well for 1 hour at 37° C. Antibodies was titrated from 5 μg/mL in a 5-fold dilution series, distributed 100 μL per well and incubated at 37° C. for 1 hour. Human IgG1 isotype control (BioxCell, BE0297) was used as negative control. Plates were washed with 200 μL PBS containing 0.1% Tween 20 (Life technologies, 003005) per well for 3 times. Goat anti-Human IgG Fc Secondary Antibody-HRP conjugate (Invitrogen, A18817) were distributed at 0.5μg/mL and 100 μL per well to detect bound antibodies. After 1-hour incubation of secondary antibody at 37° C., plates were washed with 200 μL PBS containing 0.1% Tween 20 (Life technologies, 003005) per well for 3 times. Plates were developed using TMB Substrate Solution (eBioscience, 00-4201-56) and stopped with ELISA stop solution (Invitrogen, SSO4). The level of bound antibodies was determined by reading absorbance at 450 nm. Mouse anti-human TNFR1 antibody (ThermoFisher Scientific, MA1-81005) and goat anti mouse IgG secondary antibody-HRP conjugate (Invitrogen, 62-5520) were used as positive control for human TNFR1 detection. Armenian Hamster anti-mouse TNFR2 antibody (InVivoMab, BE0247) and HRP-Goat anti-Armenian Hamster IgG (H+L) Secondary Antibody (Invitrogen, PA1-32045) were used as positive control for mouse TNFR2 detection.

[2] = target: T2, mouse TNFR2 (R&D systems, 426-R2-050/CF); test: ELISA, receptor coated at 1 µg/mL
Method: as §1, §2

[3] = target: T3, rat TNFR2 (R&D systems, 8348-R2-050); test: ELISA, receptor coated at 1 µg/ml
Method: Plates were incubated at 4° C. overnight. Antibodies was titrated from 100 μg/ml in a 5-fold dilution series, and distributed 100 μL, per well and incubated at 37° C. for 1 hour. Human IgG1 isotype control (BioxCell, BE0297) was used as negative control. TNFR2 Polyclonal Antibody (Invitrogen, PAS-80159) and HRP conjugated Goat anti-Rabbit IgG Fc Secondary Antibody (Invitrogen, A16116) were used as positive control for rat TNFR2 detection.

[4] = target: T4, His tagged human TNFR2 ECD (Acro …); test: ELISA, receptor coated at 1 µg/mL, antibody titrated from 5 µg/mL
Method: as §1, §2

[5] = target: T5, Full length human TNFR2 on Jurkat E6-1 …; test: FACS on human TNFR2+ Jurkat Clone No.3, biotinylated antibody with streptavidin-PE
Method: FACS analysis was used to evaluate the binding of purified anti-TNFR2 antibody candidates produced from example 6 to cell surface TNFR2 target. Anti-human TNFR2 antibodies and negative control IgG were biotinylated using a EZ-Link™ Micro Sulfo-NHS-Biotinylation Kit (Thermo Fisher Scientific, 21925) according to manufacturer's instructions. Biotinylated antibodies (100 μg/mL) were then incubated with Halt™ Protease Inhibitor Cocktail (100X, Thermo Scientific, 1862209) and 80 μg/mL Streptavidin-R-Phycoerythrin (PE) conjugate (Invitrogen, S21388). Antibodies were stored at 4° C. until use. 5×10⁵ Clone No.3 of human TNFR2⁺ Jurkat cells were distributed each well and blocked with human TruStain FcX™ (Biolegend, 422302) for 10 minutes at room temperature before stained with a serially diluted PE conjugated anti-human TNFR2 antibodies or hIgG1 starting from 50 μg/mL in a 5-fold dilution fashion for 30 minutes at 4° C. PE-anti hTNFR2 (Clone MR2-1, Thermo fisher #TNFR7504) was used as positive control. The geometric mean fluorescent intensity was measured on Sony SA3800 cell analyzer. Data were analyzed using Flowjo Software (Tree star Inc).

Row | Binder | binding result [4] | binding result [5] | binding result [1] | binding result [2] | binding result [3]
1 | TN36-5 (antibody, human IgG1, V domains shown, Humanized; also called AL2/AL11) VH: EVQLVESGGGLIQPGGSLRLSCAASGFSLSSSAVSWVRQAPGKGLEWIGAIGSGGTSYYSNWAKSRFTISRDNSKNTLYLQMNSLRAEDTAVYYCARDPNSSDYPYGAYGMGLWGRGTLVTVSS VL: DIQLTQSPSFLSASVGDRVTITCQVSQSISSYLSWYQQKPGKAPKLLIYYASTLASGVPSRFSGSGSGTEFTLTISSLQPEDFATYYCQQGYITSNVGNAFGGGTKVEIK | binds | binds | no binding (tested: titrated from 5 µg/mL) | no binding (tested: titrated from 5 µg/mL) | no binding (tested: titrated from 100 µg/ml)
2 | TN36-21 (antibody, human IgG1, V domains shown, Humanized; also called AL6/AL11) VH: EVQLVESGGGLVQPGGSLRLSCAASGFSLSSSAVSWVRQAPGKGLEWIGAIGSGGTSYYSNWAKSRFTISRDNSKNTLYLQMNSLRAEDTAVYYCARDPNSSDYPYGAYGMGLWGPGTLVTVSS VL: DIQLTQSPSFLSASVGDRVTITCQVSQSISSYLSWYQQKPGKAPKLLIYYASTLASGVPSRFSGSGSGTEFTLTISSLQPEDFATYYCQQGYITSNVGNAFGGGTKVEIK | – | – | no binding (tested: titrated from 5 µg/mL) | no binding (tested: titrated from 5 µg/mL) | no binding (tested: titrated from 100 µg/ml)

Now from value to binder, other results behind:

Row | binding result [4] | binding result [5] | Binder | binding result [1] | binding result [2] | binding result [3]
3 | binds | binds | TN36-3 (antibody, human IgG1, V domains shown, Humanized; also called AL2/AL9) VH: EVQLVESGGGLIQPGGSLRLSCAASGFSLSSSAVSWVRQAPGKGLEWIGAIGSGGTSYYSNWAKSRFTISRDNSKNTLYLQMNSLRAEDTAVYYCARDPNSSDYPYGAYGMGLWGRGTLVTVSS VL: DIQMTQSPSSLSASVGDRVTITCQVSQSISSYLSWYQQKPGKPPKLLIYYASTLASGVPSRFSGSGSGTDFTLTISSLQPEDFATYYCQQGYITSNVGNAFGGGTKVEIK | no binding (tested: titrated from 5 µg/mL) | no binding (tested: titrated from 5 µg/mL) | no binding (tested: titrated from 100 µg/ml)
4 | binds | binds | TN36-4 (antibody, human IgG1, V domains shown, Humanized; also called AL2/AL10) VH: EVQLVESGGGLIQPGGSLRLSCAASGFSLSSSAVSWVRQAPGKGLEWIGAIGSGGTSYYSNWAKSRFTISRDNSKNTLYLQMNSLRAEDTAVYYCARDPNSSDYPYGAYGMGLWGRGTLVTVSS VL: DIQMTQSPSFLSASVGDRVTITCQVSQSISSYLSWYQQKPGKAPKLLIYYASTLASGVPSRFSGSGSGTDFTLTISSLQPEDFATYYCQQGYITSNVGNAFGGGTKVEIK | no binding (tested: titrated from 5 µg/mL) | no binding (tested: titrated from 5 µg/mL) | no binding (tested: titrated from 100 µg/ml)
5 | binds | binds | TN36-6 (antibody, human IgG1, V domains shown, Humanized; also called AL3/AL8) VH: EVQLVESGGGLIQPGGSLRLSCAASGFSLSSSAVSWVRQAPGKGLEWIGAIGSGGTSYYSNWAKSRFTISRDNSKNTLYLQMNSLRAEDTAVYFCARDPNSSDYPYGAYGMGLWGRGTLVTVSS VL: DIQMTQSPSSLSASVGDRVTITCQVSQSISSYLSWYQQKPGKAPKLLIYYASTLASGVPSRFSGSGSGTDFTLTISSLQPEDFATYYCQQGYITSNVGNAFGGGTKVEIK | no binding (tested: titrated from 5 µg/mL) | no binding (tested: titrated from 5 µg/mL) | no binding (tested: titrated from 100 µg/ml)
